Paper PMC5474753 (Journal of molecular biology, 2016)

Molecular target: the molecule itself
Experiment: FRET or BRET

B1: full-length FGFR3 C228R mutant (CHO) (receptor)
chain: ESLGTEQRVVGRAAEVPGPEPGQQEQLVFGSGDAVELSCPPPGGGPMGPTVWVKDGTGLVPSERVLVGPQRLQVLNASHEDSGAYSCRQRLTQRVLCHFSVRVTDAPSSGDDEDGEDEAEDTGVDTGAPYWTRPERMDKKLLAVPAANTVRFRCPAAGNPTPSISWLKNGREFRGEHRIGGIKLRHQQWSLVMESVVPSDRGNYTRVVENKFGSIRQTYTLDVLERSPHRPILQAGLPANQTAVLGSDVEFHCKVYSDAQPHIQWLKHVEVNGSKVGPDGTPYVTVLKTAGANTTDKELEVLSLHNVTFEDAGEYTCLAGNSIGFSHHSAWLVVLPAEEELVEADEAGSVYAGILSYGVGFFLFILVVAAVTLCRLRSPPKKGLGSPTVHKISRFPLKRQVSLESNASMSSNTPLVRIARLSSGEGPTLANVSELELPADPKWELSRARLTLGKPLGEGCFGQVVMAEAIGIDKDRAAKPVTVAVKMLKDDATDKDLSDLVSEMEMMKMIGKHKNIINLLGACTQGGPLYVLVEYAAKGNLREFLRARRPPGLDYSFDTCKPPEEQLTFKDLVSCAYQVARGMEYLASQKCIHRDLAARNVLVTEDNVMKIADFGLARDVHNLDYYKKTTNGRLPVKWMAPEALFDRVYTHQSDVWSFGVLLWEIFTLGGSPYPGIPVEELFKLLKEGHRMDKPANCTHDLYMIMRECWHAAPSQRPTFKQLVEDLDRVLTVTSTDEYLDLSAPFEQYSPGGQDTPSSSSSGDDSVFAHDLLPPAPPSSGGSRT
How did the “stoichiometry N” value turn out when B1 was run?
The value was 2.
